From paper PMC8464984, “AimR Adopts Preexisting Dimer Conformations for Specific Target Recognition in Lysis-Lysogeny Decisions of Bacillus Phage phi3T” (Biomolecules, 2021)

B2: phAimR^C6S/C74S/C99S/C136S/C223S/C267S/D174C, labelled with Alexa488 and Cy5 (natural protein, Bacillus phage phi3T)
chain: MIKNESEKDNQLAARLAKLAGYEKVNGFYKFVNTPEKEMENLGGLLKIVKNLFPDSEEQLLSEYFLELDPNKKSARQSVEYSDINQWDTLTDKIIINLSNSKNSTSQEWGKVYSLHRKLNKNEISLNDAIRESGKSKIKSAEMLFFSNAMLMYAYLNIGEFGLMKSTSKLLEFCDLPEGFIKESFKSRVSMLEANISLNENSLLEARQHSNRAIENSNVNRISFFAYLTIGNTLIFEDYDEAKKAYIKGQKYAKNPVHQEMLDGALSFLSNIWKKENQWVNYNSDNIKYLQLRAFYYINQGNIEEATEILDELSSRDQDENELGFYYYYKGLISQDKTDYYKSIRYFKKSDDKYFIQLPLLQLERMGADLELLNLISI
modifications: Alexa Fluor 488 C5 maleimide or Cy5 maleimide on the cysteine at D174C
notes: AimR of Bacillus phage phi3T (GenBank KY030782.1), six solvent-exposed cysteines changed to serine and D174C added for labelling; One dye per chain; the doubly labelled species is a dimer with Alexa488 on one subunit and Cy5 on the other; also called phAimR (D174C labeling site); D174C dye-labeling; source: E. coli BL21 (DE3), purified in the same way as the wild-type phAimR, dye-conjugated, …
B4: phAimR^C6S/C74S/C99S/C136S/C223S/C267S/N103C, labelled with Alexa488 and Cy5 (natural protein, Bacillus phage phi3T)
chain: MIKNESEKDNQLAARLAKLAGYEKVNGFYKFVNTPEKEMENLGGLLKIVKNLFPDSEEQLLSEYFLELDPNKKSARQSVEYSDINQWDTLTDKIIINLSNSKCSTSQEWGKVYSLHRKLNKNEISLNDAIRESGKSKIKSAEMLFFSNAMLMYAYLNIGEFGLMKSTSKLLEFDDLPEGFIKESFKSRVSMLEANISLNENSLLEARQHSNRAIENSNVNRISFFAYLTIGNTLIFEDYDEAKKAYIKGQKYAKNPVHQEMLDGALSFLSNIWKKENQWVNYNSDNIKYLQLRAFYYINQGNIEEATEILDELSSRDQDENELGFYYYYKGLISQDKTDYYKSIRYFKKSDDKYFIQLPLLQLERMGADLELLNLISI
modifications: Alexa Fluor 488 C5 maleimide or Cy5 maleimide on the cysteine at N103C
notes: AimR of Bacillus phage phi3T (GenBank KY030782.1), six solvent-exposed cysteines changed to serine and N103C added for labelling; One dye per chain; the doubly labelled species is a dimer with Alexa488 on one subunit and Cy5 on the other; also called phAimR (N103C labeling site); N103C dye-labeling; source: E. coli BL21 (DE3), purified in the same way as the wild-type phAimR, dye-conjugated, …

Legend:
[1] = target: the molecule itself; test: SAXS; 100 uM protein without peptide; room temperature; 25 mM Tris-HCl pH 8.0, 300 mM NaCl
[2] = target: the molecule itself; test: FRET or BRET; smFRET in solution, FRET between the two subunits (one dye site per chain), no ligand; about 100 pM doubly labelled phAimR; 25 C, 20 mM Tris-HCl pH 7.5, 100 mM NaCl, 0.005% Tween 20
[3] = target: T1, phAimR dimer (D174C-labelled) (Bacillus phage phi3T, UniProt P0DOE3, C136S/C223S/C267S/C6S/C74S/C99S/D174C); test: smFRET titration of phAimR dimer labelled at D174C (Alexa488/Cy5); format: binding; conditions: no ligand
T1 construct: 6xHis (N, cleaved yes); made in house; host or cells: Escherichia coli BL21 (DE3)
Experimental: (§1) The cysteine substitutions of phAimR (phAimR^C6S/C74S/C99S/C136S/C223S/C267S/N103C or phAimR^C6S/C74S/ C99S/C136S/C223S/C267S/D174C) were generated with a standard PCR-based strategy. Proteins were prepared in the same way as the wild-type phAimR. Alexa Fluor 488 C5 maleimide (Alexa488, A10254, Thermo Fisher, Shanghai, China) and Cy5 maleimide (Cy5, PA15131, GE Healthcare, Shanghai, China) were used as fluorescence donor and acceptor, respectively. A desalting column (HiPrep 26/10, GE Healthcare, Shanghai, China) was used to exchange the protein buffer into the conjugation buffer containing 20 mM phosphate (pH 7.4) and 100 mM NaCl. The protein fraction was collected in premixed Alexa488 and Cy5 dyes. The conjugation of phAimR was performed with Alexa488 and Cy5 at a molar ratio of 1:4:4. Conjugation reaction was performed for 3 h at room temperature in the dark, and the mixture was then purified using a Source-Q column (GE Healthcare, Shanghai, China). The fractions of double-labeled protein that had absorption at 280 nm, 493 nm and 640 nm were collected for smFRET data collection.
(§2) The laser confocal fluorescence microscope MicroTime 200 (PicoQuant, Berlin, Germany) was used for single-molecule imaging, and a pulsed interleaved excitation (PIE) scheme was used with two SPCM-AQRH detectors (Excelitas, Waltham, MA, USA) for recording fluorescence time traces at two different wavelengths. Two picosecond-pulsed diode laser heads (LDH-P-C-485 and LDH-P-C-640; PicoQuant, Berlin, Germany) were driven by a PDL 828 Sepia II driver (PicoQuant) at a repetition rate of 40 MHz, which allowed interleaved excitations for Alexa488 and Cy5. Each laser was coupled to the inverted microscope IX 73 (Olympus, Beijing, China) through a single-mode fiber, and was reflected by a dichroic mirror through a water-immersion objective (UPLSAPO 60×, N.A. 1.20). The protein sample was loaded onto a hybridization chamber (Thermo Fisher) glued to a glass coverslip (Thermo Fisher, Shanghai, China). The laser confocal point was set to about 50 μm above the coverslip. The excitation power at the back of the objective was about 100 μW for the 485 nm laser and about 35 μW for the 640 nm laser, as estimated with a power meter (PM20-FC; Thorlabs, Shanghai, China). Focused to a 100 μm pinhole, the fluorescence emission from the excited protein molecule was collected with the same objective. The donor and acceptor emissions were separated with a dichroic mirror (T635lpxr; Chroma, Xiamen, China). The donor emission was filtered with a 520/35 BP band pass, and the acceptor emission was filtered with a 690/70 BP band pass, before being focused onto the two SPCM-AQRH detectors.
(§3) The fluorescence outputs were recorded with a TimeHarp 260 PCI board (PicoQuant, Berlin, Germany) built into a PC workstation, and the data were stored in the time-tagged time-resolved module (PicoQuant, Berlin, Germany). The photon counts including fDex/Dem, fDex/Aem and fAex/Aem were obtained by binning the photons in 1 ms bins using SymPhoTime64 software (PicoQuant, Berlin, Germany). […] With all three fluorescence time traces recorded, the signals from the donor-only or acceptor-only protein molecules were filtered out, so as to ensure that an fDex/Aem photon only arises from a doubly labeled protein. […]

[4] = target: T2, phAimR dimer (N103C-labelled) (Bacillus phage phi3T, UniProt P0DOE3, C136S/C223S/C267S/C6S/C74S/C99S/N103C); test: smFRET titration of phAimR dimer labelled at N103C (Alexa488/Cy5); format: binding; conditions: no ligand
T2 construct: 6xHis (N, cleaved yes); made in house; host or cells: Escherichia coli BL21 (DE3)
Experimental: as §1, §2, §3

[5] = target: B4; test: FRET or BRET; smFRET in solution; about 100 pM doubly labelled (Alexa488/Cy5) phAimR, peptide titrated; KD from the population of the enriched FRET state; 25 C, 20 mM Tris-HCl pH 7.5, 100 mM NaCl, 0.005% Tween 20, 1 mM L-ascorbic acid, 1 mM methylviologen; conditions: both partners purified
[6] = target: B2; test: as above; conditions: both partners purified

B1: phAimR carrying two amino acids substitutions (phAimR^Y341A/E371A) (natural protein, Bacillus phage phi3T)
chain: MIKNECEKDNQLAARLAKLAGYEKVNGFYKFVNTPEKEMENLGGLLKIVKNLFPDSEEQLLSEYFLELDPNKKCARQSVEYSDINQWDTLTDKIIINLCNSKNSTSQEWGKVYSLHRKLNKNEISLNDAIRESGKCKIKSAEMLFFSNAMLMYAYLNIGEFGLMKSTSKLLEFDDLPEGFIKESFKSRVSMLEANISLNENSLLEARQHSNRAIENSNVNRICFFAYLTIGNTLIFEDYDEAKKAYIKGQKYAKNPVHQEMLDGALCFLSNIWKKENQWVNYNSDNIKYLQLRAFYYINQGNIEEATEILDELSSRDQDENELGFYYYYKGLISQDKTDYAKSIRYFKKSDDKYFIQLPLLQLERMGADLALLNLISI
notes: AimR of Bacillus phage phi3T (GenBank KY030782.1) with Y341A and E371A; also called phAim^Y341A/E371A; phAimR^Y341/E371A; source: E. coli BL21 (DE3), purified, prepared in the same way as the wild-type protein; not shown: His6, N-terminal, cleaved
For B1, the “stoichiometry N” value [1] was 2.

In the case of B2, the “stoichiometry N” value [2] is reported as 2.

B3: phAimR: AimR from Phi3T phage (GenBank: KY030782.1), transcription factor and arbitrium peptide receptor (protein)
chain: MIKNECEKDNQLAARLAKLAGYEKVNGFYKFVNTPEKEMENLGGLLKIVKNLFPDSEEQLLSEYFLELDPNKKCARQSVEYSDINQWDTLTDKIIINLCNSKNSTSQEWGKVYSLHRKLNKNEISLNDAIRESGKCKIKSAEMLFFSNAMLMYAYLNIGEFGLMKSTSKLLEFDDLPEGFIKESFKSRVSMLEANISLNENSLLEARQHSNRAIENSNVNRICFFAYLTIGNTLIFEDYDEAKKAYIKGQKYAKNPVHQEMLDGALCFLSNIWKKENQWVNYNSDNIKYLQLRAFYYINQGNIEEATEILDELSSRDQDENELGFYYYYKGLISQDKTDYYKSIRYFKKSDDKYFIQLPLLQLERMGADLELLNLISI
modifications: left off: His6, N-terminal, cleaved
notes: AimR from Phi3T phage (GenBank: KY030782.1), transcription factor and arbitrium peptide receptor
With B3 the “FRET efficiency centre of high-FRET species (state 1)” value [3] was roughly 63%, the “FRET efficiency centre of low-FRET species (state 2)” value [3] was “about 35%” and the “population of high-FRET species (state 1)” value [3] was ~ 61%. The “population of low-FRET species (state 2)” value [3] was ~ 39%, the “FRET efficiency centre of high-FRET species (state 2)” value [4] was roughly 62% and the “FRET efficiency centre of low-FRET species (state 1)” value [4] was “about 30%”. For the same molecule, the “population of high-FRET species (Phigh, state 2)” value [4] was ~ 42% and the “population of low-FRET species (Plow, state 1)” value [4] was ~ 58%.

For B4, the “stoichiometry N” value [2] was 2.

B5: phi3T arbitrium peptide (SAIRGA) (peptide)
peptide: SAIRGA
notes: mature arbitrium peptide processed from the AimP pro-peptide (43 amino acids) of Bacillus phage phi3T; also called SAIRGA peptide; phi3T-derived peptide
For B5, the Kd [5] was 41.5 ± 5.8 nM and the Kd [6] was 22.9 ± 0.5 nM.
